Source: the DeepSol protein solubility set

Assay: soluble on expression in E. coli; label from the status in PepcDB or PDB records

| Sequence | soluble on expression in E. coli |
| --- | --- |
| MEIERKFLVLNDDFKAKATAVHNIIQAYLVADERCTVRIRLCNDEAYLTIKGKTNEGGLSRSEYEYSVPFEEAKEMLTLCLPGYIMKQRYCVPHKGHVWEVDVFEGRHKGLVIAEVELATEDESIELPDWIGNEVTGDKRYYNSFIAGIQK | soluble |
| SLKPIMYNEKRGVSVMDIKLQQTQILKPQLTQELKQAITLLGYNSAELAGYIDELSLENPLIERKETDTPPLSYHKTNKNRMKEQDVSQQIRLTRKTLQDSLKQQAIDMKLSDAEKKIFNYLIYSLDSNGYLKEDIQAAADHVSASLEETEAVLAKLQSLEPAGIGARSLQECILLQLRRLPERNEQAEWIAGAYFELFARKNWKALTLQTGIPLKDIQDIFDMISALDPRPGLRYAHEEPGFYVEPDIFNTVKNGIIQARLNSRSFPDIQLHAHYRPMLSAAGCRDVQQVPF | soluble |
| MQKGVYIMNSTSSIITIGREYGSGGRQIGQEVAKYFGIKCYDKELLEHAANDSGICKELFEHHDEKPTNSFLYSLVMDTYSFGYSSSGFSDMPMNHKIFLAQFDAIKKLAGEGPCVMVGRCADYALADWNDCFSIFVHADLDWRINRIASKHGKTPKEAKDMITKTDKSRASYYNYYTNKKWGAARSYNLCIDSGKLGIDYATEAIIESIKIFDRTKISK | not soluble |
| MNNYDDLPCSIYFKKPTVQEFVDQPRVFEDSEVPAFQEVLQLPQERTKPPVPSTQPIVAAVEVAKKKSCLSAPKPRKEPPSHPALRQKTVAFGKTVNVSQTVEGTSRNSKKVLASTMSAQNTTTTEEQAAENWRDAMKTELQTIRTEIQEETARRQEELNAQNLVKMQELMSNFFQKITIPKQQAIEPVEKDKENFHESPRQSRQQKPASKIASAREVIKRDGVIPPEALTIIEQRLRSDPMFRQQIDNVLADAECDANRAAYSPPPPMSEVRYGSGVNPALMRETLTVERSIRYDNGLASIDSRQWTNERRDNRAPDSYRTYEPDQPCHSLYQKGQSISYYPSEAAGKTTARNNRTGYYVEDSSDHEEDVVVNKRGQNYHEQAVPETPAERERRIREKYARRK | not soluble |
| MEENNKILIYTDSEGLTKIDVILEDETLWLTQAQMCELYQTSKSNVSEHIKHIFEEGELQEDSVVRKFRTTASDGKSYMTAYYNLDMIIALGYRIRSIIATRFRQWATQRLKEYMIKGFALDDERLKQLGGGGYWKELLERIRDIRATEKVLYRQVLEIYATSIDYDPRASVSQEFFKKVQNKIHYAIHGHTAAELIVERADAEKDFMGLLTFKGNQPTLSEARTAKNYLDEKELRAMGQLVSGYLDFAERQAEREQPMTMNDWANYLDRILTMSGEQLLLDSGKVSHTEAMEHATNEYRKYKQRTISDVEQDYLDSIKRIGNIGKKGDKNEN | not soluble |
| MEATGLITEYNPFHNGHLYHLKKAQELTKADVTIVLMSGNWVQRGLPAITDKWKRAQAAIDAGADLVFELPFYYAVQAGEIFAQGAVRLLSDLQVSSIICGSEHADIDFINLAAHEPDISGNSNFDKKNRTFASNYAAALEEKTGFYLENANDILAFSYAKAILNQNLTEKIKLRTISRVSADYHDQFLNDGEIASATAIRKALSEGQNVDSYTPMSDLQY | not soluble |
| GPGSMERLLPSMQQRFAELAHTGVGESSLTVEALFQRYQRVLKVGEGTFGEVFVLYDTVAHTYITMKRMHTLLSLRRRSLGIHRCTFREVELLAALQHPNIVQVLDYHILSDGSLVMLMPVIAHDLTSLLRRWPSTPQSSDHGTASTAASTRPRMPLHVVKCIFRQIIAGVAYLHKHKVVHRDLKPSNVMVDHTGVVKLIDFGWSRFCAAAGAMTGPPCVTAFRPPEVLMGAHNHYTFSLDIWCCGCILFEMLTGGTPFAKSRNEAECLANIVDWLGSPPSSSEVYYRRAARCPFPLAPGRPDTFAQRCSNYGIKSAEAMFLRRMLCLEPGERATAEALLRDPWFTTAPTMCVPRAVPLPAHNMFRLVEVKRKELEH | not soluble |
| MALADISGYLDVLDSVRGFSYLENAREVLRSGEARCLGNPRSEPEYVKALYVIGASRIPVGDGCSHTLEELGVFDISVPGEMVFPSPLDFFERGKPTPLVRSRLQLPNGVRVWLKLEWYNPFSLSVKDRPAVEIISRLSRRVEKGSLVADATSSNFGVALSAVARLYGYRARVYLPGAAEEFGKLLPRLLGAQVIVDPEAPSTVHLLPRVMKDSKNEGFVHVNQFYNDANFEAHMRGTAREIFVQSRRGGLALRGVAGSLGTSGHMSAAAFYLQSVDPSIRAVLVQPAQGDSIPGIRRVETGMLWINMLDISYTLAEVTLEEAMEAVVEVARSDGLVIGPSGGAAVKALAKKAAEGDLEPGDYVVVVPDTGFKYLSLVQNALEGAGDSV | soluble |
| MTATPEVQKSIEEVYTKLQGASDCSSLLKKHLTKDVVAKNKSKKTRLGATLLDVIQSGGENLDSGVGIYAPDAESYTLFADLFNPVIEEYHNGFKATDTQPAMDLGEKNVGELADLDPEGKFIVSTRIRCGRSLQGYPFNPCLSETNYKMMETRMKEIFNSITDPELKGTYYPLTGMDEETKKKLIADHFLFKEGDRFLKAANANRYWPNGRGIFHNEKKTFLVWVNEEDHLRIISMQNGGNVGEVLARLIKGLNLVAAKAPFARHPRLGWLTFCPTNLGTTVRASVHIKLPKISAKDDFKKICSDMKLQIRGIHGEHSESKEGIYDISNKQRLGLTEYQAVRQMYDGLKKLIELEKAAA | not soluble |
| MAQPQLYLPEPFKIAYRKVGQCRRFQQLKKKNGSFKRKGIERWHRAVSTNLLKQNVLVPKEESSSDSDMGFHESQQNQKSNLKTKVKTAFGRMLSYKYRSKPACASQEGSTDHKEALLSNTQSLLPRIVKEFSSPKLFTAKMRKLSENATIQLDVVEAETEEITQGNTLLRARRTTKRLSVTSLPSGLQKGPYSPKKRPHFPALKKKKRGMENILRKSDLTVGKLQMQVDDLIETVTDKSMKLLAQRHAELQQCEFLGDEILQSSKQFQRISKRTMRKYKLKNMTTKGPGDS | soluble |
| MSLVIYMIGGSPCSGKSTIASLLARQYQLLHIKLDDLVDEMMSQASADSQPICLLRQDRNPEQIWMRNPKEMADEEWRFYEEIFPYVKSYLIKKDRPLLVEGAGLLPHLVKELEWPASSYLCLTPTADFQKKHYRQREWVSYVLEGTTNPEQAFENWMQRDILFAQMVRKEAMRLGYSSLMTDGSQSEKQTAEEIARLLKLYNINEIDIKGENEGHHHHHH | soluble |
| SKFDKLNKAYEQIKSDYYQKTDDDKLVDGAIKGMIQSLDDPYSTYMDQEQAKSFDETISASFEGIGAQVEEKDGEILIVSPIKGSPAEKAGIKPRDQIIKVNGKSVKGMNVNEAVALIRGKKGTKVKLELNRAGVGNIDLSIKRDTIPVETVYSEMKDNNIGEIQITSFSETTAKELTDAIDSLEKKGAKGYILDLRGNPGGLMEQAITMSNLFIDKGKNIMQVEYKNGSKEVMKAEKERKVTKPTVVLVNDGTASAAEIMAAALHESSNVPLIGETTFGKGTVQTAKEYDDGSTVKLTVAKWLTADGEWIHKKGIKPQVKAELPDYAKLPYLDADKTYKSGDTGTNVKVAQKMLKALGYKVKVNSMYDQDFVSVVKQFQKKEKLNETGILTGDTTTKLMIELQKKLSDNDTQMEKAIETLKK | not soluble |
| MGSDKIHHHHHHMKNFVTSERSIFEMEKSTEPAIRVKDGSVVKIKTKDHFNGQIHAKQLHYGELDWKQFSPTTGPIYIEEARPGDLLAITIEKIELLGTEVFLLNGPNIGITDDLLTSNSTRCYKVENNQIIYSEDIHIPIRKTIGLLKTEELNPSKVPTKNGGLLDSSKITEGATIFLPVEKYGASLHVGNVRATTGFGKITATSAEAPAEVTLRLQILKNRTAPTPTIIHYHNLICLASDITIEKATQKTMHNMITLLTESDKMTTEDALFLISLQADFQVCKLCKPNITTSIKLPLDYFPEMPFL | not soluble |
| SLVNPNQFKPLIVEQAKKQTGLDLVIEGDIGWQFFPSIGFELGKTELKNPQGFASPNLFKVESVGIDVSVMPLLDKQLKIGNIRLDGAEFHLETLKDGRSNLDALTQAQSKPASAPATTDSAPASQPSSSEPAAAWSIELGGVSVSNAVLEITDKKAGSHTKLYDVQLSVAEFVPDNWTKATFAAKGDKDQQKFAAQGEAEVRLSADFKQYALRNINLDASFSDPSNQIDSAKLKLDTFEFDKANALTFSVAGKAADMKLNAQGSASLMVNQAISKVGLDALKLQAELEGAALPQSPMKLSLDSQIAFDLTQNHLSVLLNKLTANALSFDGKADVTLADIPKVRFNLHSPEIDLDAFLGTKAQESQPAPAKEAAASSSSAPATNAPAEVEPDLSALKALDVAGEISIDKFKASNAHLQNVKANFAVNRGVVDLKSFTANLYQGSVQASAQVDARKTPATYSVKKQIKGVQVKPLLKDVLNNEMLEGTGNIDVNVQGQSLTPSGIQKNLVGTVAINFADGAVKGINVAHLIRTHYAKIKGQNVEEADAVKKTDFSAMTTTLKLNKGEVTTNDLNMQSPLLRIHGEGKANYLQQNVDFLVRTSIVGTLEGQGGKSLDELRDVTIPINISGAWSDPKFRLVFDDVLKQKAKKEVDRGVEKLTDKIKDEDTKKAVDGLLKGLFN | soluble |
| MGSDKIHHHHHHMIGEKIISFESIDSTNRFLKENYRFYPDGTVVVALEQTSGYGRSGRHWHSPKGGLWFSVLFKPRKPLELSFYTRVFSVAVVKTLENMKIHANIKWPNDVYINGRKLAGVLSEGIFEGAKPLAVVVGVGMNVNNEIPAELKTRAISLKEIMGKEISIVKLMESMLKNARVIFRKYSRKKEALTRIWKRYLLQKEGDLISLEGKKGKIVKINPDSLLIDFDGEIKKVYSLSPH | not soluble |
| MGSDKIHHHHHHMVLLILKFHGESVKIKPECAICIIRQVVDAANEITDDEREQFRLIKSTMEVIKDVYGESAVPAWMGTVVHRYLKKISNNNDPYKNLKEKANKIALQYLDKVREMSNTDDELERLRKKVLATIAGNVIDFGAYSTGINIEKLIEDTLNGELKIDNSRKLLNDLKDKNIKKILYICDNAGEIIFDRVLMEEIKKYDKDIVAVVKGKPILNDATLEDAKIAKIDEIAKVITTGSDIIGIILEECSEEFLKEFESADLIIAKGMGNYESLTEYEDKIDKPIYYILKAKCKPVAENIGVDVGDNVLLKR | not soluble |
| MFKVDRYFDLTAPIYPYMPVWPSNPPVELKPIVTVPKDGYLAEIIEASTHTGTHIDAPAHMIEGGTTVDDLDLASLIGTGYCLKVLPDGHTIRSTHLAEKWQGIYNNSILLIETGWYKKRGYTREFQYDFPGLSEDAADFLIQKHVKAVGIDTLGIEPYENTDFRVHKKLLRSGIPIIEDLYGLDSLEEGRPYLIIALPLRLKGTSGSMARVVAAETELEHHHHHH | not soluble |
| AALVSISVSPTNSTVAKGLQENFKATGIFTDNSNSDITDQVTWDSSNTDILSISNASDSHGLASTLNQGNVKVTASIGGIQGSTDFKVTQAALTSIEVSPTRTSIAKGLTQKFTAIGIFTDNSKKDITDQVTWNSSSAIVSVSNLDNNKGLGKTNSVGNTTITATLGKVSGNTWFTVVPAVLTSIQINPVNPSLAKGLTQKFTATGIYSDNSNKDITSAVTWFSSDSSIATISNAQKNQGNAYGAATGATDIKATFGKVSSPVSTLSVTAAKLVEIQITPAAASKAKGLTERFKATGIFTDNSNSDITNQVTWNSSNTDIAEIKNTSGSKGITNTLTPGSSEISAALGSIKSSKVILKV | not soluble |
| MGSDKIHHHHHHMKLICSKANLLKGVNIVSKAVPTRTTMAILECILIDASANEIKLMANDMELGIETIIDGTIEERGIIALDAKIFSEIVRKLPDNDVTIETDASFKTVISCEKAKFNIIGKSGDDFSYIPYVERNESIVLSQFTLKEVIRQTIFSIADNDNNKLMTGELFEIEENKLRVVSLDGHRISIRYIEMKNHYDSKKVVVPGKTLQEISKIIPGSADEDVVIYITNNHIVFEFENTTVVSRLIEGEYFKIDQMLSSDYDTKVRINKRELLDCIDRATLLVKEGDKKPIIMNITDGNMELRINSFIGSMNEDIDIDKDGKDIMIGFNPKFFIDALRVIDEEEVNLYMVNPKAPCFIKDDEGKFIYLILPVNFNTAAN | not soluble |
